Data on 38 sequences can be found in the supplement of paper PMC7877785.

± gives the uncertainty stated by the source.

The series in a line: self-splicing fitness, log relative to wild type (ln ratio); higher = more splicing; Tetrahymena group I intron in knt gene, E. coli kanamycin selection, DiMSum; sequences stand for … in CUCUCU…GGAGGGAAAAGUUAUCAGGCAUGCACCUGGUAGCUAGUCUUUAAACCAAUAGAUUGCAUCGGUUUAAAAGGCAAGACCGUCAAAUUGCGGGAAAGGGGUCAACAGCCGUUCAGUACCAAGUCUCAGGGGAAACUUUGAGAUGGCCUUGCAAAGGGUAUGGUAAUAAGCUGACGGACAUGGUCCUAACCACGCAGCCAAGUCCUAAGUCAACAGAUCUUCUGUUGAUAUGGAUGCAGUUCACAGACUAAAUGUCGGUCGGGGAAGAUGUAUUCUUCUCAUAAGAUAUAGUCGGACCUCUCCUUAAUGGGAGCUAGCGGAUGAAGUGAUGCAACACUGGAGCCGCUGGGAACUAAUUUGUAUGCGAAAGUAUAUUGAUUAGUUUUGGAGUACUCGUGGUCG
The procedure, abridged: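 Pooled colonies went to amplicon sequencing on an Illumina HiSeq 2500 after six replicate transformations. The plates were LB agar with 100 μg/mL carbenicillin, 50 μM IPTG and 0.2% rhamnose, with or without 25 μg/mL kanamycin, incubated overnight at 37°C or 30°C. The E. coli BL21(DE3) library had all eight P1ex-region intron nucleotides randomised, the intron placed in the knt kanamycin-resistance gene on pET-22b(+). DiMSum fitness is the error-weighted combination of replicate fold changes, kanamycin against none, normalised to wild type.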

On to GCACAGCAAUAUUACGAUCA, for which the “self-splicing fitness (ln)” value by setting is: (30 °C) -0.983 ± 0.13; (37 °C) -0.209 ± 0.14.
The like results for UAAAAGCAAUAUUACGUGUG were, in that order, -1.07 ± 0.052 and -0.712 ± 0.069.
With UAGGAGCAAUAUUACGACGA, the “self-splicing fitness (ln)” value is -1.21 ± 0.2 (30 °C) and -0.888 ± 0.28 (37 °C).
The like results for UCAGAGCAAUAUUACGUCAA were, in that order, -3.81 ± 0.4 and -2.13 ± 0.23.
The like results for GCACAGCAAUAUUACGCUCA were, in that order, -1.08 ± 0.088 and -0.585 ± 0.1.
The like results for ACAAAGCAAUAUUACGCAGU were, in that order, -3.46 ± 0.2 and -2.78 ± 0.21.
On to GGGCAGCAAUAUUACGACAU, for which the “self-splicing fitness (ln)” value runs as follows: (30 °C) -0.411 ± 0.013; (37 °C) 0.0276 ± 0.033.
Take AUCAAGCAAUAUUACGCAGU: the “self-splicing fitness (ln)” value is, setting by setting: (30 °C) -2.61 ± 0.14; (37 °C) -1.71 ± 0.15.
The like results for GGGAAGCAAUAUUACGGUCA were, in that order, -0.346 ± 0.1 and -0.237 ± 0.11.
The like results for ACUUAGCAAUAUUACGGGUC were, in that order, -3.35 ± 0.13 and -3.27 ± 0.2.
The like results for UAUCAGCAAUAUUACGGCUU were, in that order, -1.03 ± 0.075 and -0.106 ± 0.11.
Turning to GCGCAGCAAUAUUACGUACA, the “self-splicing fitness (ln)” value was -1.49 ± 0.084 (30 °C) and -0.256 ± 0.088 (37 °C).
The like results for GAGAAGCAAUAUUACGUGUA were, in that order, -2.8 ± 0.15 and -1.41 ± 0.13.
The like results for GUCAAGCAAUAUUACGUCGA were, in that order, -3.6 ± 0.42 and -4.19 ± 0.46.
The like results for CAUCAGCAAUAUUACGGGAC were, in that order, -3.95 ± 0.46 and -2.51 ± 0.22.
On to UGUAAGCAAUAUUACGGUUC, for which the “self-splicing fitness (ln)” value (37 °C) was -2.92 ± 0.31.
For the sequence CUGCAGCAAUAUUACGGUAA, the “self-splicing fitness (ln)” value (30 °C) is -2.7 ± 0.16 and the “self-splicing fitness (ln)” value (37 °C) is -1.76 ± 0.14.
The like results for AUUGAGCAAUAUUACGUUCC were, in that order, -1.94 ± 0.23 and -2.1 ± 0.3.
The like results for UCAAAGCAAUAUUACGCGCU were, in that order, -3.63 ± 0.47 and -2.53 ± 0.45.
Take ACAUAGCAAUAUUACGACGU: the “self-splicing fitness (ln)” value came to 0.079 ± 0.081 (30 °C) and 0.0804 ± 0.083 (37 °C).
Regarding AGGAAGCAAUAUUACGCUAA, the “self-splicing fitness (ln)” value reads like this: (30 °C) -1.19 ± 0.13; (37 °C) -1.89 ± 0.27.
For UCUUAGCAAUAUUACGUAUG, the “self-splicing fitness (ln)” value runs as follows: (30 °C) -1.33 ± 0.15; (37 °C) -0.892 ± 0.18.
The like results for ACAUAGCAAUAUUACGACAG were, in that order, -1.46 ± 0.099 and -0.508 ± 0.11.
In the case of ACAUAGCAAUAUUACGUGCU, the “self-splicing fitness (ln)” value (30 °C) is -0.99 ± 0.072 and the “self-splicing fitness (ln)” value (37 °C) was -1.1 ± 0.085.
For the sequence UAGCAGCAAUAUUACGGUCA, the “self-splicing fitness (ln)” value was -0.671 ± 0.07 (30 °C) and 0.278 ± 0.085 (37 °C).
The like results for AUGGAGCAAUAUUACGGUAU were, in that order, -3.49 ± 0.16 and -1.32 ± 0.1.
For the sequence GGGGAGCAAUAUUACGUUAA, the “self-splicing fitness (ln)” value is -2.53 ± 0.4 (30 °C) and -1.95 ± 0.35 (37 °C).
The like results for AAGAAGCAAUAUUACGAGUC were, in that order, -2.53 ± 0.23 and -1.51 ± 0.25.
The like results for GGAGAGCAAUAUUACGUAUC were, in that order, -2.61 ± 0.34 and -0.193 ± 0.23.
Consider CCUUAGCAAUAUUACGAUGA, for which the “self-splicing fitness (ln)” value (30 °C) was -3 ± 0.43 and the “self-splicing fitness (ln)” value (37 °C) is -1.71 ± 0.28.
The like results for UUAUAGCAAUAUUACGGACA were, in that order, -1.66 ± 0.14 and -0.61 ± 0.12.
Consider UCUAAGCAAUAUUACGGCGA, for which the “self-splicing fitness (ln)” value (30 °C) is -0.734 ± 0.086 and the “self-splicing fitness (ln)” value (37 °C) was -0.474 ± 0.092.
The like results for GCACAGCAAUAUUACGUUAA were, in that order, -1.04 ± 0.055 and -0.544 ± 0.065.
For AUAAAGCAAUAUUACGCACG, the “self-splicing fitness (ln)” value is -0.375 ± 0.083 (30 °C) and -0.0827 ± 0.11 (37 °C).
The like results for CGAUAGCAAUAUUACGAAAU were, in that order, -3.36 ± 0.28 and -2.5 ± 0.33.
The like results for CAUUAGCAAUAUUACGGUAG were, in that order, -0.468 ± 0.062 and -0.027 ± 0.072.
The like results for UUCUAGCAAUAUUACGGUUA were, in that order, -1.7 ± 0.11 and -0.789 ± 0.093.
On to CCACAGCAAUAUUACGUGUG, for which the “self-splicing fitness (ln)” value is -3.61 ± 0.095 (30 °C) and -2.36 ± 0.092 (37 °C).
